Source: patent publication US20250026846A1 (JCR PHARMACEUTICALS, published 2025)

B1: Fab GS3-ASM (other)
light: DIVMTQTPLSLSVTPGQPASISCRSSQSLVHSNGNTYLHWYLQKPGQSPQLLIYKVSNRFSGVPDRFSGSGSGTDFTLKISRVEAEDVGVYYCSQSTHVPWTFGQGTKVEIKRTVAAPSVFIFPPSDEQLKSGTASVVCLLNNFYPREAKVQWKVDNALQSGNSQESVTEQDSKDSTYSLSSTLTLSKADYEKHKVYACEVTHQGLSSPVTKSFNRGEC
heavy: EVQLVQSGAEVKKPGESLKISCKGSGYSFMNYWLGWVRQMPGKGLEWMGDIYPGGDYPTYSEKFKVQVTISADKSISTAYLQLSSLKASDTAMYYCARSGNYDEVAYWGQGTLVTVSSASTKGPSVFPLAPSSKSTSGGTAALGCLVKDYFPEPVTVSWNSGALTSGVHTFPAVLQSSGLYSLSSVVTVPSSSLGTQTYICNVNHKPSNTKVDKKVEPKSCDKTHTGGGGSGGGGSGGGGSLSDSRVLWAPAEAHPLSPQGHPARLHRIVPRLRDVFGWGNLTCPICKGLFTAINLGLKKEPNVARVGSVAIKLCNLLKIAPPAVCQSIVHLFEDDMVEVWRRSVLSPSEACGLLLGSTCGHWDIFSSWNISLPTVPKPPPKPPSPPAPGAPVSRILFLTDLHWDHDYLEGTDPDCADPLCCRRGSGLPPASRPGAGYWGEYSKCDLPLRTLESLLSGLGPAGPFDMVYWTGDIPAHDVWHQTRQDQLRALTTVTALVRKFLGPVPVYPAVGNHESTPVNSFPPPFIEGNHSSRWLYEAMAKAWEPWLPAEALRTLRIGGFYALSPYPGLRLISLNMNFCSRENFWLLINSTDPAGQLQWLVGELQAAEDRGDKVHIIGHIPPGHCLKSWSWNYYRIVARYENTLAAQFFGHTHVDEFEVFYDEETLSRPLAVAFLAPSATTYIGLNPGYRVYQIDGNYSGSSHVVLDHETYILNLTQANIPGAIPHWQLLYRARETYGLPNTLPTAWHNLVYRMRGDMQLFQTFWFLYHKGHPPSEPCGTPCRLATLCAQLSARADSPALCRHLMPDGSLPEAQSLWPRPLFC
notes: also called Fab HC-GS3-ASM
B2: Fab GS3-ARSA (other)
light: B1 light
heavy: EVQLVQSGAEVKKPGESLKISCKGSGYSFMNYWLGWVRQMPGKGLEWMGDIYPGGDYPTYSEKFKVQVTISADKSISTAYLQLSSLKASDTAMYYCARSGNYDEVAYWGQGTLVTVSSASTKGPSVFPLAPSSKSTSGGTAALGCLVKDYFPEPVTVSWNSGALTSGVHTFPAVLQSSGLYSLSSVVTVPSSSLGTQTYICNVNHKPSNTKVDKKVEPKSCDKTHTGGGGSGGGGSGGGGSRPPNIVLIFADDLGYGDLGCYGHPSSTTPNLDQLAAGGLRFTDFYVPVSLCTPSRAALLTGRLPVRMGMYPGVLVPSSRGGLPLEEVTVAEVLAARGYLTGMAGKWHLGVGPEGAFLPPHQGFHRFLGIPYSHDQGPCQNLTCFPPATPCDGGCDQGLVPIPLLANLSVEAQPPWLPGLEARYMAFAHDLMADAQRQDRPFFLYYASHHTHYPQFSGQSFAERSGRGPFGDSLMELDAAVGTLMTAIGDLGLLEETLVIFTADNGPETMRMSRGGCSGLLRCGKGTTYEGGVREPALAFWPGHIAPGVTHELASSLDLLPTLAALAGAPLPNVTLDGFDLSPLLLGTGKSPRQSLFFYPSYPDEVRGVFAVRTGKYKAHFFTQGSAHSDTTADPACHASSSLTAHEPPLLYDLSKDPGENYNLLGGVAGATPEVLQALKQLQLLKAQLDAAVTFGPSQVARGEDPALQICCHPGCTPRPACCHCPDPHA
notes: also called Fab HC-GS3-ARSA
B3: Fab GS3-SGSH (other)
light: B1 light
heavy: EVQLVQSGAEVKKPGESLKISCKGSGYSFMNYWLGWVRQMPGKGLEWMGDIYPGGDYPTYSEKFKVQVTISADKSISTAYLQLSSLKASDTAMYYCARSGNYDEVAYWGQGTLVTVSSASTKGPSVFPLAPSSKSTSGGTAALGCLVKDYFPEPVTVSWNSGALTSGVHTFPAVLQSSGLYSLSSVVTVPSSSLGTQTYICNVNHKPSNTKVDKKVEPKSCDKTHTGGGGSGGGGSGGGGSRPRNALLLLADDGGFESGAYNNSAIATPHLDALARRSLLFRNAFTSVSSCSPSRASLLTGLPQHQNGMYGLHQDVHHFNSFDKVRSLPLLLSQAGVRTGIIGKKHVGPETVYPFDFAYTEENGSVLQVGRNITRIKLLVRKFLQTQDDRPFFLYVAFHDPHRCGHSQPQYGTFCEKFGNGESGMGRIPDWTPQAYDPLDVLVPYFVPNTPAARADLAAQYTTVGRMDQGVGLVLQELRDAGVLNDTLVIFTSDNGIPFPSGRTNLYWPGTAEPLLVSSPEHPKRWGQVSEAYVSLLDLTPTILDWFSIPYPSYAIFGSKTIHLTGRSLLPALEAEPLWATVFGSQSHHEVTMSYPMRSVQHRHFRLVHNLNFKMPFPIDQDFYVSPTFQDLLNRTTAGQPTGWYKDLRHYYYRARWELYDRSRDPHETQNLATDPRFAQLLEMLRDQLAKWQWETHDPWVCAPDGVLEEKLSPQCQPLHNEL
notes: also called Fab HC-GS3-SGSH
B4: Fab GS3-GBA (other)
light: B1 light
heavy: EVQLVQSGAEVKKPGESLKISCKGSGYSFMNYWLGWVRQMPGKGLEWMGDIYPGGDYPTYSEKFKVQVTISADKSISTAYLQLSSLKASDTAMYYCARSGNYDEVAYWGQGTLVTVSSASTKGPSVFPLAPSSKSTSGGTAALGCLVKDYFPEPVTVSWNSGALTSGVHTFPAVLQSSGLYSLSSVVTVPSSSLGTQTYICNVNHKPSNTKVDKKVEPKSCDKTHTGGGGSGGGGSGGGGSARPCIPKSFGYSSVVCVCNATYCDSFDPPTFPALGTFSRYESTRSGRRMELSMGPIQANHTGTGLLLTLQPEQKFQKVKGFGGAMTDAAALNILALSPPAQNLLLKSYFSEEGIGYNIIRVPMASCDFSIRTYTYADTPDDFQLHNFSLPEEDTKLKIPLIHRALQLAQRPVSLLASPWTSPTWLKTNGAVNGKGSLKGQPGDIYHQTWARYFVKFLDAYAEHKLQFWAVTAENEPSAGLLSGYPFQCLGFTPEHQRDFIARDLGPTLANSTHHNVRLLMLDDQRLLLPHWAKVVLTDPEAAKYVHGIAVHWYLDFLAPAKATLGETHRLFPNTMLFASEACVGSKFWEQSVRLGSWDRGMQYSHSIITNLLYHVVGWTDWNLALNPEGGPNWVRNFVDSPIIVDITKDTFYKQPMFYHLGHFSKFIPEGSQRVGLVASQKNDLDAVALMHPDGSAVVVVLNRSSKDVPLTIKDPAVGFLETISPGYSIHTYLWRRQ
notes: also called Fab HC-GS3-GBA
B5: Fab GS3-NAGLU (other)
light: B1 light
heavy: EVQLVQSGAEVKKPGESLKISCKGSGYSFMNYWLGWVRQMPGKGLEWMGDIYPGGDYPTYSEKFKVQVTISADKSISTAYLQLSSLKASDTAMYYCARSGNYDEVAYWGQGTLVTVSSASTKGPSVFPLAPSSKSTSGGTAALGCLVKDYFPEPVTVSWNSGALTSGVHTFPAVLQSSGLYSLSSVVTVPSSSLGTQTYICNVNHKPSNTKVDKKVEPKSCDKTHTGGGGSGGGGSGGGGSDEAREAAAVRALVARLLGPGPAADFSVSVERALAAKPGLDTYSLGGGGAARVRVRGSTGVAAAAGLHRYLRDFCGCHVAWSGSQLRLPRPLPAVPGELTEATPNRYRYYQNVCTQSYSFVWWDWARWEREIDWMALNGINLALAWSGQEAIWQRVYLALGLTQAEINEFFTGPAFLAWGRMGNLHTWDGPLPPSWHIKQLYLQHRVLDQMRSFGMTPVLPAFAGHVPEAVTRVFPQVNVTKMGSWGHFNCSYSCSFLLAPEDPIFPIIGSLFLRELIKEFGTDHIYGADTFNEMQPPSSEPSYLAAATTAVYEAMTAVDTEAVWLLQGWLFQHQPQFWGPAQIRAVLGAVPRGRLLVLDLFAESQPVYTRTASFQGQPFIWCMLHNFGGNHGLFGALEAVNGGPEAARLFPNSTMVGTGMAPEGISQNEVVYSLMAELGWRKDPVPDLAAWVTSFAARRYGVSHPDAGAAWRLLLRSVYNCSGEACRGHNRSPLVRRPSLQMNTSIWYNRSDVFEAWRLLLTSAPSLATSPAFRYDLLDLTRQAVQELVSLYYEEARSAYLSKELASLLRAGGVLAYELLPALDEVLASDSRFLLGSWLEQARAAAVSEAEADFYEQNSRYQLTLWGPEGNILDYANKQLAGLVANYYTPRWRLFLEALVDSVAQGIPFQQHQFDKNVFQLEQAFVLSKQRYPSQPRGDTVDLAKKIFLKYYPRWVAGSW
notes: also called Fab HC-GS3-NAGLU

Molecular target: T1, recombinant human TfR (r human TfR: Sino Biological Inc.), hTfR extracellular region with a histidine tag at … (human, UniProt P02786 89-760)
T1 construct: Bought from Sino Biological; also called r human TfR-ECD (Histag); recombinant hTfR; not shown: histidine tag at the N-terminus
Assay: BLI (Octet RED96), His-tagged TfR ECD on Ni-NTA sensor

| Binder | Kd [nM] | koff [s⁻¹] | kon [M⁻¹ s⁻¹] |
| --- | --- | --- | --- |
| B1 | 0.0689 | 3.63e-05 | 526000 |
| B2 |  |  | 670000 |
| B3 | < 0.001 | < 1e-07 | 721000 |
| B4 | < 0.001 | < 1e-07 | 623000 |
| B5 | < 0.001 | < 1e-07 | 291000 |

Molecular target: T2, recombinant monkey TfR (r monkey TfR: Sino Biological Inc.), crab-eating monkey TfR extracellular region with … (crab-eating monkey (Macaca fascicularis))
T2 construct: Bought from Sino Biological; also called r monkey TfR-ECD (Histag); not shown: histidine tag at the N-terminus
T2 chain: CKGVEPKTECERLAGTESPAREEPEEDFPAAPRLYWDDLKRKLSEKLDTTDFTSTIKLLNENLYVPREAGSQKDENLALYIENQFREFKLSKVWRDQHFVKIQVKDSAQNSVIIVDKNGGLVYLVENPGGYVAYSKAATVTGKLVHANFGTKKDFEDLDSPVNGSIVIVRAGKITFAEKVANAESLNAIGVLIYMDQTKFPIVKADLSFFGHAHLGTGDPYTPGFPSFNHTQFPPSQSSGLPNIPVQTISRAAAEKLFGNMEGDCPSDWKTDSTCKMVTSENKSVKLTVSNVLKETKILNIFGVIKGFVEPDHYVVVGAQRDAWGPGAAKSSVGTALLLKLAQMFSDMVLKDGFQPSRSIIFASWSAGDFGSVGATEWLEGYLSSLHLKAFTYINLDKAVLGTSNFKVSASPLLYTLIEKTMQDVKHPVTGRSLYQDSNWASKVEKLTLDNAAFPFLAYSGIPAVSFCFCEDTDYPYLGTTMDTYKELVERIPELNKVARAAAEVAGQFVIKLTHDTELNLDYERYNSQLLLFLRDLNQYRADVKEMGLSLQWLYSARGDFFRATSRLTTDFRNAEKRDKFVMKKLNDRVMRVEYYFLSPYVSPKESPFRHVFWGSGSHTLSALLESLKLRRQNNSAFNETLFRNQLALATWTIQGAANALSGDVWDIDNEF
Assay: as above

| Binder | Kd [nM] | koff [s⁻¹] | kon [M⁻¹ s⁻¹] |
| --- | --- | --- | --- |
| B1 | 2 | 0.000549 | 274000 |
| B2 | 1.09 | 0.000281 | 258000 |
| B3 | < 0.001 | < 1e-07 | 388000 |
| B4 |  |  | 299000 |
| B5 | 2.62 | 0.000402 | 154000 |
